Source: patent publication US20170088624A1

Biological target: Full length human CD40 (huCD40) on cells (human) (UniProt P25942)
Assay: cell-based or functional assay

Chain of CP-870,893 (antibody) (VH): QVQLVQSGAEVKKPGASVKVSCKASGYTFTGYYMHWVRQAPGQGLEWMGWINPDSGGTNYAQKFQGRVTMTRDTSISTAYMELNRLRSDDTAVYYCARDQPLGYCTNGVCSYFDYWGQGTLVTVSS
Chain of CP-870,893 (antibody) (VL): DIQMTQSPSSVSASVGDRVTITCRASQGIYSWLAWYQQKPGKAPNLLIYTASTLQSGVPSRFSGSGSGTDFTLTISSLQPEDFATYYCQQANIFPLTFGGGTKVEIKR
Chain of Full length human CD40 (huCD40) on cells (human) (P25942 21-277): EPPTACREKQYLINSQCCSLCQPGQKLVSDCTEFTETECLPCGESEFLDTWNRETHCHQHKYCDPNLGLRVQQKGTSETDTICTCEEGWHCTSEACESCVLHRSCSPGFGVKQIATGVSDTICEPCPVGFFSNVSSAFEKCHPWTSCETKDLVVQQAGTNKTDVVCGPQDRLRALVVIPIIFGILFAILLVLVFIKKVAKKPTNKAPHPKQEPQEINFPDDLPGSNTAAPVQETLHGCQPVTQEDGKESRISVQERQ

B cells EC50, CD23 surface expression, no cross-linker: 3.17 ng/mL
B cells EC50, CD80 surface expression, no cross-linker: 7.34 ng/mL
B cells EC50, CD83 surface expression, no cross-linker: 4.28 ng/mL
B cells EC50, CD86 surface expression, no cross-linker: 4.04 ng/mL
B cells EC50, HLA-DR surface expression, no cross-linker: 8.15 ng/mL
DC EC50, CD80 surface expression, no cross-linker: 44.7 ng/mL
DC EC50, CD83 surface expression, no cross-linker: 245 ng/mL
DC EC50, CD86 surface expression, no cross-linker: 133 ng/mL
DC EC50, HLA-DR surface expression, no cross-linker: 242 ng/mL
Substance: CP-870,893 (antibody)
